Measurements: US9951373B2, “Oplophorus-derived luciferases, novel coelenterazine substrates, and methods of use” (Promega Corporation, priority 2010, dated 2018)

B1: L27V, K43R, Y68D: 9B8 opt+K33N with L27V, K43R, Y68D (SEQ ID NO: 340) (protein)
chain: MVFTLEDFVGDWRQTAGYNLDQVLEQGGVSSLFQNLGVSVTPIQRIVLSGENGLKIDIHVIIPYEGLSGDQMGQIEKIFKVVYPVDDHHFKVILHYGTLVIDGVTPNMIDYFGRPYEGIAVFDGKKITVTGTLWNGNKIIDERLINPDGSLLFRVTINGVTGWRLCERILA
B2: L27V, T39T, K43R, Y68D Sand: L27V in Id-OgLuc-HT7 sandwich (SEQ ID NO: 91) (protein)
chain: MLGLSEQSVSISRCAGTRLPALLDEQQVNVLLYDMNGCYSRLKELVPTLPQNRKVSKVEILQHVIDYIRDLQLELNSESEVGTTGGRGLPVRAPLSTLNGEISALAAEAACVPADDRILCRVSLENLYFQASGGGGGAIAMVFTLEDFVGDWRQTAGYNLDQVLEQGGVSSLFQNLGVSVTPIQRIVLSGENGLKIDIHVIIPYEGLSGDQMGQIEKIFKVVYPVDDHHFKVILHYGTLVIDGVTPNMIDYFGRPYEGIAVFDGKKITVTGTLWNGNKIIDERLINPDGSLLFRVTINGVTGWRLCERILAGYLEPTTEDLYFQSDNDGSEIGTGFPFDPHYVEVLGERMHYVDVGPRDGTPVLFLHGNPTSSYVWRNIIPHVAPTHRCIAPDLIGMGKSDKPDLGYFFDDHVRFMDAFIEALGLEEVVLVIHDWGSALGFHWAKRNPERVKGIAFMEFIRPIPTWDEWPEFARETFQAFRTTDVGRKLIIDQNVFIEGTLPMGVVRPLTEVEMDHYREPFLNPVDREPLWRFPNELPIAGEPANIVALVEEYMDWLHQSPVPKLLFWGTPGVLIPPAEAARLAKSLPNCKAVDIGPGLNLLQEDNPDLIGSEIARWLSTLEISG

Assays:
[1] = test system: NIH3T3 cells; test: Luminescence of OgLuc variants expressed in NIH3T3 cells; type: cell-based
Description: (§1) The PCR library in the pF4Ag-based non-fusion background was screened for additional variants with increased luminescence compared to 9B8 opt+K33N+170G (SEQ ID NOs: 68 and 69). Selected variants were then assayed in HEK293 and NIH3T3 cells. For each cell type, 15,000 cells were plated and grown overnight at 37° C. The next day, the cells were transfected as described in Example 25 with 10 ng pGL4.13 (Promega Corp.) as a transfection control and 100 ng of the OgLuc test DNA. The media was removed, and the cells were lysed with 100 μL of lysis buffer as described in Example 25 except the lysis buffer contained 100 mM MES pH 6.0 instead of HEPES, and luminescence measured using a GLOMAX® Luminometer.
(§2) Based on the above data, further combination variants were designed and generated (see Table 10) in the context of the pF4Ag-based non-fusion vector background without the 170G. The variants were analyzed in E. coli, HEK293 and NIH3T3 cells as described above and compared to 9B8 opt+K33N. The variants were also examined for luminescence with native coelenterazine.
(§3) The brightness of the variants expressed in HEK293 and NIH3T3 cells was measured as described previously. The luminescence of the variants was normalized to the luminescence generated by 9B8 opt (Table 27).

[2] = Luminescence of 9B8 opt+K33N derived variants in E. coli; type: biochemical
Description: Luminescence generated from the lysates was measured using the novel PBI-3939 and native coelenterazine as substrates. The relative specificity of the variants for PBI-3939 and native coelenterazine was calculated as described previously.
A new OgLuc library was created using 9B8opt+K33N as a starting template. The random library was created using DIVERSIFY® PCR Random Mutagenesis Kit (ClonTech; Catalog #630703). Condition 5 (as listed in the user manual) was used to generate additional variants, and the average mutation rate was calculated to be 2.6 mutations per gene by compiling sequence data from 83 randomly selected clones. This PCR library was cloned into the pF4Ag-based, non-fusion vector background described previously and the sandwich background, i.e., Id-OgLuc-HT7 (described in Example 45). Variants in the pF4Ag-base non-fusion vector background are designated with (NF). Variants in the sandwich vector background are designated with (F). In order to clone the PCR product into both vectors, an amino acid, i.e., a glycine, was appended to the variant sequence in pF4Ag, generating a new position 170 in the OgLuc variant (“170G”). The 170G is present in the sandwich construct, but in this case is considered part of the linker between OgLuc and HT7. For each library, 4,400 E. coli clones were assayed as described previously with the following exceptions. […] The assay buffer contained 100 mM MES pH 6.0 instead of HEPES, and 35 mM thiourea. The assay volumes were as follows: 10 μL cells, 40 μL, lysis buffer, and 50 μL, assay buffer.
E. coli lysates containing the variants were prepared and analyzed as described previously. Luminescence generated from the lysates was measured using the novel PBI-3939 and native coelenterazine as substrates. The luminescence of the variants was normalized to the luminescence generated by 9B8 opt (Table 12). The relative specificity of the variants for PBI-3939 and native coelenterazine was calculated by dividing the luminescence of the variants using PBI-3939 as a substrate with the luminescence of the variants using native coelenterazine as a substrate (Table 12).

[3] = Thermal stability of OgLuc variants at 60° C.; type: physicochemical; details: 60° C., assay buffer MES pH 6.0
Description: Aliquots were removed at different time-points and placed on dry ice to freeze the samples. […] Luminescence was measured on a GLOMAX® luminometer (Promega Corp.).
The thermal stability of the variants at 60° C. was examined as described above, except the assay buffer contained 100 mM MES pH 6.0 instead of HEPES.

[4] = test system: HEK293 cells; test: Luminescence in sandwich background, HEK293 cells; type: cell-based, human
Description: (§4) The PCR library in the Id-OgLuc-HT7 sandwich background was screened for additional variants with increased luminescence compared to 9B8 opt+K33N in sandwich background. Selected variants were then assayed in HEK293 and NIH3T3 cells. […] 1F7 (F) (SEQ ID NOs: 84 and 85) and 15H1 (F) (SEQ ID NOs: 86 and 87) had at least 1.3 fold-increase in luminescence in E. coli. 1F7 (F) was brighter than 9B8 opt+K33N in the sandwich background in HEK293 and NIH3T3 cells.
(§5) The variants 9B8 opt+K33N+T39T+K43R+Y68D (“V2”; SEQ ID NOs: 92 and 93), 9B8 opt+K33N+L27V+K43R+Y68D (SEQ ID NOs: 339 and 340), 9B8 opt+K33N+L27V+T39T+K43R+S66N (SEQ ID NOs: 341 and 342), and 9B8 opt+K33N+L27V+T39T+K43R+Y68D (“L27V”; SEQ ID NOs: 88 and 89) were subcloned into the Id-OgLuc-HT7 sandwich background as described above and assayed in HEK293 and NIH3T3 cells as described above. The luminescence generated by the sandwiched variants were compared to the luminescence generated by the […] sandwich (SEQ ID NOs: 59 and 60) (Table 38). The L27V sandwich (SEQ ID NOs: 90 and 91) and V2 sandwich (SEQ ID NOs: 94 and 95) had at least 1.3× fold-increase in luminescence in HEK293 and NIH3T3 cells.
(§6) The sandwich and non-sandwich versions of the variants V2, 9B8 opt+K33N+L27V+K43R+Y68D, 9B8 opt+K33N+L27V+T39T+K43R+S66N, and L27V were assayed in HEK293 and NIH3T3 cells as described in Example 37. The luminescence generated by the non-sandwiched variants was compared to the luminescence generated by the sandwiched variants (Table 39).

[5] = Enzyme kinetics of OgLuc variants in E. coli lysates; type: biochemical; details: PBI-3939, E. coli lysates
Description: Using methods known in the art, enzyme kinetic assays measuring luminescence were performed with the lysates of E. coli containing IV and the IV variants 15C1, 9B8, 9F6, and 9A3. […] Two fold serial dilutions of PBI-3939 in the assay buffer described previously in Example 26 were assayed with the diluted lysates. […] Variants 9B8 and 9F6 had higher Km values compared to IV while Km values for the other variants were unchanged.
Luminescence was measured on a TECAN® INFINITE® F500 luminometer.
The enzyme kinetics values were determined for the OgLuc variants as described previously, except luminescence was measured using a GLOMAX® luminometer. Three replicates were used for each variant.

[6] = test system: NIH3T3 cells; test: Luminescence in sandwich background, NIH3T3 cells; type: cell-based
Description: as §4, §5, §6

[7] = test system: HEK293 cells; test: Luminescence of OgLuc variants expressed in HEK293 cells; type: cell-based, human
Description: as §1, §2, §3

[8] = relative specificity for PBI-3939 compared to native coelenterazine

| Molecule | luminescence normalized to 9B8 opt, NIH3T3 ([1]; PBI-3939) | Fold over 9B8 opt + K33N, NIH3T3 ([1]; luminescence, PBI-3939) | Fold over Native Coelenterazine, NIH3T3 [1, 8] | fold-increase in relative specificity over 9B8 opt+K33N ([2]; in the three cell types examined) | Fold over coelenterazine ([2]; luminescence with PBI-3939 divided by luminescence with native coelenterazine, bacterial lysates) | Fold over 9B8 ([2]; luminescence with PBI-3939 normalized to 9B8 opt, bacterial lysates) | Fold over Native Coelenterazine, E. coli [2, 8] | 1/2 life hours [3] | Fold-decrease in luminescence in the presence of sandwich background, HEK 293 ([4]; non-sandwich versus sandwich) | Km [5] | Vmax [5] | Fold-decrease in luminescence in the presence of sandwich background, NIH 3T3 cells ([6]; non-sandwich versus sandwich) | luminescence normalized to 9B8 opt, HEK293 ([7]; PBI-3939) | Fold over 9B8 opt + K33N, HEK293 ([7]; luminescence, PBI-3939) | Fold over Native Coelenterazine, HEK293 [7, 8] | Fold over 9B8 opt + K33N sandwich, HEK293 ([4]; sandwich background) | Fold over 9B8 opt + K33N sandwich, NIH3T3 ([6]; sandwich background) |
| --- | --- | --- | --- | --- | --- | --- | --- | --- | --- | --- | --- | --- | --- | --- | --- | --- | --- |
| B1 | 1.5 | 0.8 | 98 | 5 × fold | 110 | 1.3 | 98.3 | 23.2 h | 8 | 13.7 µM | 130,000,000 RLU/0.5 sec | 22 | 1.6 | 0.9 | 101 | – | – |
| B2 | – | – | – | – | – | – | – | – | – | – | – | – | – | – | – | 1.7 | 1.4 |
